Assay results from US20090149339A1 (published 2009).
Ends that are not written are not given here. * marks the point of attachment. Biotin = O=C1N[C@H]2[C@H](CS[C@H]2CCCCC(=O)*)N1

B1: FceRIb C-terminal PL peptide AA25L, biotinylated (peptide)
peptide: Biotin-YSATYSELEDPGEMSPPIDL
notes: also called Fc epsilon receptor beta I chain

These binders were tested against GST-MPP1 PDZ domain fusion protein (55 Kd erythrocyte membrane protein AA101-186; PDZ domain 1 of 1) (UniProt P08515 1-218 = GST) (assay: A/G assays).
GST-MPP1 PDZ domain fusion protein (55 Kd erythrocyte membrane protein AA101-186; PDZ domain 1 of 1), sequence (P08515 1-218, tags or fused parts left off): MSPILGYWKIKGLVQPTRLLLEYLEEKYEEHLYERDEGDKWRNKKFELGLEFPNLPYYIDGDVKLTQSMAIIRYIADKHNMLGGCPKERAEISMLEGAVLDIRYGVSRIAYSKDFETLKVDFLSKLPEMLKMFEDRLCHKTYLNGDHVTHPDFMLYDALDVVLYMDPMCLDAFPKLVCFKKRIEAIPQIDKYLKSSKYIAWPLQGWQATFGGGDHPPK
Biotin-AWDDSARAAGGQGLHVTAL [LPAP C-terminal PL peptide AA30L, biotinylated]: no binding.
B1: no binding.

These binders were tested against GST-prIL16 PDZ domain fusion protein (putative interleukin 16 precursor AA170-383; PDZ domains 1-2 of 2) (UniProt P08515 1-218 = GST) (assay: A/G assays).
GST-prIL16 PDZ domain fusion protein (putative interleukin 16 precursor AA170-383; PDZ domains 1-2 of 2), sequence (P08515 1-218, tags or fused parts left off): as above
Biotin-AWDDSARAAGGQGLHVTAL [LPAP C-terminal PL peptide AA30L, biotinylated]: no binding.
B1: no binding.

These binders were tested against T1, GST-CASK PDZ domain fusion protein (CASK AA495-584; PDZ domain 1 of 1) (mouse, UniProt P08515 1-218 = GST) (assay: A/G assays).
T1 construct: also called mCASK
Biotin-AWDDSARAAGGQGLHVTAL [LPAP C-terminal PL peptide AA30L, biotinylated]: no binding.
B1: no binding.

What follows are binders tested against T2, GST-MPP2 PDZ domain fusion protein (maguk p55 subfamily member 2 (DLG2) AA185-273; PDZ domain 1 of 1) (UniProt P08515 1-218 = GST) (assay: A/G assays).
T2 construct: also called MMP2
T2 sequence (P08515 1-218, tags or fused parts left off): as above
Biotin-AWDDSARAAGGQGLHVTAL [LPAP C-terminal PL peptide AA30L, biotinylated]: no binding.
B1: no binding.

What follows are binders tested against GST-LIMK2 PDZ domain fusion protein (human LIM domain kinase 2 AA185-275; PDZ domain 1 of 1) (human, UniProt P08515 1-218 = GST) (assay: A/G assays).
GST-LIMK2 PDZ domain fusion protein (human LIM domain kinase 2 AA185-275; PDZ domain 1 of 1), sequence (P08515 1-218, tags or fused parts left off): as above
Biotin-AWDDSARAAGGQGLHVTAL [LPAP C-terminal PL peptide AA30L, biotinylated]: no binding.
B1: no binding.

The binders below were run against GST-DVL1 PDZ domain fusion protein (human dishevelled segment polarity protein homolog AA248-340); PDZ domain … (human, UniProt P08515 1-218 = GST) (assay: A/G assays).
GST-DVL1 PDZ domain fusion protein (human dishevelled segment polarity protein homolog AA248-340); PDZ domain …, sequence (P08515 1-218, tags or fused parts left off): as above
Biotin-AWDDSARAAGGQGLHVTAL [LPAP C-terminal PL peptide AA30L, biotinylated]: no binding.
B1: no binding.

The binders below were run against T3, GST-TAX43 PDZ domain fusion protein (human tax interaction protein 43 AA15-85; PDZ domain 1 of 1) (human, UniProt P08515 1-218 = GST) (assay: A/G assays).
T3 construct: also called TX 43
Biotin-AWDDSARAAGGQGLHVTAL [LPAP C-terminal PL peptide AA30L, biotinylated]: no binding.
B1: no binding.

What follows are binders tested against T4, GST-SYN1a PDZ domain fusion protein (alpha1-syntrophin AA96-189; PDZ domain 1 of 1) (UniProt P08515 1-218 = GST) (assay: A/G assays).
T4 construct: also called SYN 1 alpha; SYNTR 1 alpha
Biotin-AWDDSARAAGGQGLHVTAL [LPAP C-terminal PL peptide AA30L, biotinylated]: no binding.
B1: no binding.

These binders were tested against T5, GST-NeDLG PDZ domain fusion protein (presynaptic protein sao102, neuroendocrine-dlg; PDZ domains 1-2 of 3) (UniProt P08515 1-218 = GST) (assay: A/G assays).
T5 construct: also called NeDLG1
T5 sequence (P08515 1-218, tags or fused parts left off): as above
Biotin-AWDDSARAAGGQGLHVTAL [LPAP C-terminal PL peptide AA30L, biotinylated]: no binding.
B1: no binding.

These binders were tested against GST-LIM PDZ domain fusion protein (Human LIM protein AA29-112; PDZ domain 1 of 1) (human, UniProt P08515 1-218 = GST) (assay: A/G assays).
GST-LIM PDZ domain fusion protein (Human LIM protein AA29-112; PDZ domain 1 of 1), sequence (P08515 1-218, tags or fused parts left off): as above
Biotin-AWDDSARAAGGQGLHVTAL [LPAP C-terminal PL peptide AA30L, biotinylated]: no binding.
B1: no binding.

What follows are binders tested against T6, GST-RGS12 PDZ domain fusion protein (human regulator of G-protein signalling 12 AA35-103; PDZ domain 1 of 1) (human, UniProt P08515 1-218 = GST) (assay: A/G assays).
T6 construct: also called RSG12
T6 sequence (P08515 1-218, tags or fused parts left off): as above
Biotin-AWDDSARAAGGQGLHVTAL [LPAP C-terminal PL peptide AA30L, biotinylated]: no binding.
B1: no binding.

What follows are binders tested against T7, GST-TAX40 PDZ domain fusion protein (human tax interaction protein 40 AA35-137; PDZ domain 1 of 1) (human, UniProt P08515 1-218 = GST) (assay: A/G assays).
T7 construct: also called TX 40
T7 sequence (P08515 1-218, tags or fused parts left off): as above
Biotin-AWDDSARAAGGQGLHVTAL [LPAP C-terminal PL peptide AA30L, biotinylated]: no binding.
B1: no binding.

What follows are binders tested against T8, GST-CBP PDZ domain fusion protein (Cytohesin binding protein HE AA85-175; PDZ domain 1 of 1) (UniProt P08515 1-218 = GST) (assay: A/G assays).
T8 construct: also called Prot
T8 sequence (P08515 1-218, tags or fused parts left off): as above
Biotin-AWDDSARAAGGQGLHVTAL [LPAP C-terminal PL peptide AA30L, biotinylated]: no binding.
B1: no binding.

What follows are binders tested against GST-MINT3 PDZ domain fusion protein (human MINT3 AA11-52; PDZ domain 1 of 1) (human, UniProt P08515 1-218 = GST) (assay: A/G assays).
GST-MINT3 PDZ domain fusion protein (human MINT3 AA11-52; PDZ domain 1 of 1), sequence (P08515 1-218, tags or fused parts left off): as above
Biotin-AWDDSARAAGGQGLHVTAL [LPAP C-terminal PL peptide AA30L, biotinylated]: no binding.
B1: no binding.

Each binder was assayed against T9, GST-KIAA0303 PDZ domain fusion protein (KIAA0303 AA652-742; PDZ domain 1 of 1) (UniProt P08515 1-218 = GST) (assay: A/G assays).
T9 construct: also called K303
T9 sequence (P08515 1-218, tags or fused parts left off): as above
Biotin-AWDDSARAAGGQGLHVTAL [LPAP C-terminal PL peptide AA30L, biotinylated]: no binding.
B1: no binding.

These binders were tested against T10, GST-TAX33 PDZ domain fusion protein (tax interaction protein 33 AA73-162; PDZ domain 1 of 1) (UniProt P08515 1-218 = GST) (assay: A/G assays).
T10 construct: also called TX33
T10 sequence (P08515 1-218, tags or fused parts left off): as above
Biotin-AWDDSARAAGGQGLHVTAL [LPAP C-terminal PL peptide AA30L, biotinylated]: no binding.
B1: no binding.

The binders below were run against T11, GST-KIAA0316 PDZ domain fusion protein (KIAA0316 AA197-284; PDZ domain 1 of 1) (UniProt P08515 1-218 = GST) (assay: A/G assays).
T11 construct: also called K316
T11 sequence (P08515 1-218, tags or fused parts left off): as above
Biotin-AWDDSARAAGGQGLHVTAL [LPAP C-terminal PL peptide AA30L, biotinylated]: no binding.
B1: no binding.

Each binder was assayed against GST-AF6 PDZ domain fusion protein (af-6 protein AA985-1077; PDZ domain 1 of 1) (UniProt P08515 1-218 = GST) (assay: A/G assays).
GST-AF6 PDZ domain fusion protein (af-6 protein AA985-1077; PDZ domain 1 of 1), sequence (P08515 1-218, tags or fused parts left off): as above
Biotin-AWDDSARAAGGQGLHVTAL [LPAP C-terminal PL peptide AA30L, biotinylated]: no binding.
B1: no binding.

These binders were tested against T12, GST-41.8 kD PDZ domain fusion protein (hypothetical 41.8 kD protein AA4-85; PDZ domain 1 of 1) (UniProt P08515 1-218 = GST) (assay: A/G assays).
T12 construct: also called hypoth
T12 sequence (P08515 1-218, tags or fused parts left off): as above
Biotin-AWDDSARAAGGQGLHVTAL [LPAP C-terminal PL peptide AA30L, biotinylated]: no binding.
B1: no binding.

These binders were tested against GST-TIAM1 PDZ domain fusion protein (T-lymphoma invasion and metastasis inducing protein 1 AA1001-1088); PDZ 1 … (UniProt P08515 1-218 = GST) (assay: A/G assays).
GST-TIAM1 PDZ domain fusion protein (T-lymphoma invasion and metastasis inducing protein 1 AA1001-1088); PDZ 1 …, sequence (P08515 1-218, tags or fused parts left off): as above
Biotin-AWDDSARAAGGQGLHVTAL [LPAP C-terminal PL peptide AA30L, biotinylated]: no binding.
B1: no binding.

The binders below were run against T13, GST-TAX2 PDZ domain fusion protein (human tax interaction protein 2 AA54-140; PDZ domain 1 of 1) (human, UniProt P08515 1-218 = GST) (assay: A/G assays).
T13 construct: also called TX 2
T13 sequence (P08515 1-218, tags or fused parts left off): as above
Biotin-AWDDSARAAGGQGLHVTAL [LPAP C-terminal PL peptide AA30L, biotinylated]: no binding.
B1: no binding.

These binders were tested against GST-NOS1 PDZ domain fusion protein (human neuronal nitric oxide synthase; PDZ domain 1 of 1) (human, UniProt P08515 1-218 = GST) (assay: A/G assays).
GST-NOS1 PDZ domain fusion protein (human neuronal nitric oxide synthase; PDZ domain 1 of 1), sequence (P08515 1-218, tags or fused parts left off): as above
Biotin-AWDDSARAAGGQGLHVTAL [LPAP C-terminal PL peptide AA30L, biotinylated]: no binding.
B1: no binding.

These binders were tested against GST-PSD95 PDZ domain fusion protein (human post-synaptic density protein 95 AA387-724; PDZ domains 1-3 of 3) (human, UniProt P08515 1-218 = GST) (assay: A/G assays).
Biotin-AWDDSARAAGGQGLHVTAL [LPAP C-terminal PL peptide AA30L, biotinylated]: no binding.
B1: no binding.

These binders were tested against GST-PTN-4 PDZ domain fusion protein (protein-tyrosine phosphatase meg1 AA774-862; PDZ domain 1 of 1) (UniProt P08515 1-218 = GST) (assay: A/G assays).
GST-PTN-4 PDZ domain fusion protein (protein-tyrosine phosphatase meg1 AA774-862; PDZ domain 1 of 1), sequence (P08515 1-218, tags or fused parts left off): as above
Biotin-AWDDSARAAGGQGLHVTAL [LPAP C-terminal PL peptide AA30L, biotinylated]: no binding.
B1: no binding.

These binders were tested against T14, GST-KIAA0559 PDZ domain fusion protein (KIAA0559 AA766-870; PDZ1 of 1) (UniProt P08515 1-218 = GST) (assay: A/G assays).
T14 construct: also called K559
T14 sequence (P08515 1-218, tags or fused parts left off): as above
Biotin-AWDDSARAAGGQGLHVTAL [LPAP C-terminal PL peptide AA30L, biotinylated]: no binding.
B1: no binding.
